Experimental data published in paper PMC2923024.

What was measured:
hnRNP A1 UP1 fragment = hnRNP A1 UP1 fragment (UniProt P09651 1-196); experiment: competition
KSRP = target: T1, KSRP (UniProt Q92945 1-711); experiment: competition
T1 sequence: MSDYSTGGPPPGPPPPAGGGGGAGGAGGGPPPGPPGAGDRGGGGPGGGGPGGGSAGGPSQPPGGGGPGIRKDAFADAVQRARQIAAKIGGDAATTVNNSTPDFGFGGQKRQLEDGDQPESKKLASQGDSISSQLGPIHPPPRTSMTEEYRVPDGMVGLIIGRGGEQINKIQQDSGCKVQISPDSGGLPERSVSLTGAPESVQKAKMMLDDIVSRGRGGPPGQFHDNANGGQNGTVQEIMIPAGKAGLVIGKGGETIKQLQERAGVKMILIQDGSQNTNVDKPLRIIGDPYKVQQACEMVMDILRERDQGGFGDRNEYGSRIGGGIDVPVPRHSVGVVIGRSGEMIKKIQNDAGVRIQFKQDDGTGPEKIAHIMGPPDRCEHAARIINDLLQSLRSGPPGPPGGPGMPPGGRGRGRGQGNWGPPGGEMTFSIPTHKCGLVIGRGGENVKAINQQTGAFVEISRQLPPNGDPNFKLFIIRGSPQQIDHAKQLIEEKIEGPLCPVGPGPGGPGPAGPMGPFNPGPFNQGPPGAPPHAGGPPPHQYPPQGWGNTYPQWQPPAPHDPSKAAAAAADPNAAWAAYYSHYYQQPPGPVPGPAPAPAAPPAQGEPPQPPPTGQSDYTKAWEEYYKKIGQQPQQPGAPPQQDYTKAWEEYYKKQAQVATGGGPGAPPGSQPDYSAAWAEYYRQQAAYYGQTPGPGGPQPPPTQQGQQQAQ

Sequence of hnRNP A1 UP1 fragment (P09651 1-196): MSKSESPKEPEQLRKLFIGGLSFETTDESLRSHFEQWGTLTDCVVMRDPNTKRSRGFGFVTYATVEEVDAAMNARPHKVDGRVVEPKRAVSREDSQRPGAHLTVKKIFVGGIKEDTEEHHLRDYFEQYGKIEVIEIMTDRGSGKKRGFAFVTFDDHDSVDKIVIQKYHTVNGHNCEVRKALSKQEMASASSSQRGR

B1: let-7a-1 loop (structured_RNA)
RNA: GUUGUAUAGUUUUAGGGUCACACCCACCACUGGGAGAUAACUAUACAAUC
binding result (hnRNP A1 UP1 fragment): binds | binding result (KSRP): binds
